Positions count from the first letter of the chain named.
B1: CD3 × CD33-BspAb85 (bispecific antibody)
chain 1: EVQLVESGGGLVKPGGSLRLSCAASGFTFSSYSMNWVRQAPGKCLEWVSSISRSSGYIFYADSVKGRFTISRDNAKNSLYLQMNSLRAEDTAVYYCVRERVGAGFDYWGQGTLVTVSSGGGGSGGGGSGGGGSGGGGSNFMLTQPHSVSESPGKTVAISCTRSSGSIASNYVQWYQQRPGSSPTAVIYEDNQRPSGVPDRFSGSIDSSSNSAFLTISGLKTEDEADYYCQSYDSSNRVFGCGTKLTVLDKTHTCPPCPAPEFEGGPSVFLFPPKPKDTLMISRTPEVTCVVVDVSHEDPEVKFNWYVDGVEVHNAKTKPREEQYNSTYRVVSVLTVLHQDWLNGKEYKCKVSNKALPASIEKTISKAKGQPREPQVYTLPPCREEMTKNQVSLWCLVKGFYPSDIAVEWESNGQPENNYKTTPPVLDSDGSFFLYSKLTVDKSRWQQGNVFSCSVMHEALHNHYTQKSLSLSPGK
chain 2: EVQLVQSGAEVKKPGSSVKVSCKASGYTITDSNIHWVRQAPGQSLEWIGYIYPYNGGTDYNQKFKNRATLTVDNPTNTAYMELSSLRSEDTAFYYCVNGNPWLAYWGQGTLVTVSSASTKGPSVFPLAPSSKSTSGGTAALGCLVKDYFPEPVTVSWNSGALTSGVHTFPAVLQSSGLYSLSSVVTVPSSSLGTQTYICNVNHKPSNTKVDKRVEPKSCDKTHTCPPCPAPEFEGGPSVFLFPPKPKDTLMISRTPEVTCVVVDVSHEDPEVKFNWYVDGVEVHNAKTKPREEQYNSTYRVVSVLTVLHQDWLNGKEYKCKVSNKALPASIEKTISKAKGQPREPQVCTLPPSREEMTKNQVSLSCAVKGFYPSDIAVEWESNGQPENNYKTTPPVLDSDGSFFLVSKLTVDKSRWQQGNVFSCSVMHEALHNRFTQKSLSLSPGK
chain 3: DIQLTQSPSTLSASVGDRVTITCRASESLDNYGIRFLTWFQQKPGKAPKLLMYAASNQGSGVPSRFSGSGSGTEFTLTISSLQPDDFATYYCQQTKEVPWSFGQGTKVEVKRTVAAPSVFIFPPSDEQLKSGTASVVCLLNNFYPREAKVQWKVDNALQSGNSQESVTEQDSKDSTYSLSSTLTLSKADYEKHKVYACEVTHQGLSSPVTKSFNRGEC
B2: CD3 × CD33-BspAb86 (bispecific antibody)
chain 1: EVQLVESGGGLVKPGGSLRLSCAASGFTFSSYSMNWVRQAPGKCLEWVSSISRSGTYIYYADSVKGRFTISRDNAKNSLYLQMNSLRAEDTAVYYCARERWELLYFDYWGQGTLVTVSSGGGGSGGGGSGGGGSGGGGSQTVVTQEPSLTVSPGGTVTLTCASSTGAVTSGYYPNWFQQKPGQAPRALIYSTSNKHSWTPARFSGSLLGGKAALTLSGVQPEDEAEYYCLLYYGGAYVFGCGTKVTVLDKTHTCPPCPAPEFEGGPSVFLFPPKPKDTLMISRTPEVTCVVVDVSHEDPEVKFNWYVDGVEVHNAKTKPREEQYNSTYRVVSVLTVLHQDWLNGKEYKCKVSNKALPASIEKTISKAKGQPREPQVYTLPPCREEMTKNQVSLWCLVKGFYPSDIAVEWESNGQPENNYKTTPPVLDSDGSFFLYSKLTVDKSRWQQGNVFSCSVMHEALHNHYTQKSLSLSPGK
chain 2: B1 chain 2
chain 3: B1 chain 3
B3: CD3 × CD33-BspAb90 (bispecific antibody)
chain 1: not shown
chain 2: B1 chain 2
chain 3: B1 chain 3
B4: Gemtuzumab (antibody, V domains shown)
VH: EVQLVQSGAEVKKPGSSVKVSCKASGYTITDSNIHWVRQAPGQSLEWIGYIYPYNGGTDYNQKFKNRATLTVDNPTNTAYMELSSLRSEDTAFYYCVNGNPWLAYWGQGTLVTVSS
VL: DIQLTQSPSTLSASVGDRVTITCRASESLDNYGIRFLTWFQQKPGKAPKLLMYAASNQGSGVPSRFSGSGSGTEFTLTISSLQPDDFATYYCQQTKEVPWSFGQGTKVEVKR
B5: High affinity Control (Control Humanized anti-CD3 (high affinity) scFv-Fc knob/TM x gemtuzumab) (bispecific antibody)
chain: EVQLVESGGGLVQPGGSLRLSCAASGFTFSTYAMNWVRQAPGKGLEWVGRIRSKYNNYATYYADSVKGRFTISRDDSKNTLYLQMNSLRAEDTAVYYCVRHGNFGDSYVSWFAYWGQGTLVTVSSGKPGSGKPGSGKPGSGKPGSQAVVTQEPSLTVSPGGTVTLTCGSSTGAVTTSNYANWVQQKPGKSPRGLIGGTNKRAPGVPARFSGSLLGGKAALTISGAQPEDEADYYCALWYSNHWVFGGGTKLTVLGGGGSDKTHTCPPCPAPEFEGGPSVFLFPPKPKDTLMISRTPEVTCVVVDVSHEDPEVKFNWYVDGVEVHNAKTKPREEQYNSTYRVVSVLTVLHQDWLNGKEYKCKVSNKALPASIEKTISKAKGQPREPQVYTLPPCREEMTKNQVSLWCLVKGFYPSDIAVEWESNGQPENNYKTTPPVLDSDGSFFLYSKLTVDKSRWQQGNVFSCSVMHEALHNHYTQKSLSLSPGK
heavy: B1 chain 2
light: B1 chain 3
B6: CD3 × CD33-BspAb125 (bispecific antibody)
chain 1: not shown
chain 2: B1 chain 2
chain 3: B1 chain 3
B7: Low affinity Control (Control Humanized anti-CD3 (low affinity) scFv-Fc knob/TM x gemtuzumab) (bispecific antibody)
chain: B5 chain with A113D
heavy: B1 chain 2
light: B1 chain 3

Target: T1, human CD3 (on human Pan-T cells or donor PBMC) (human, UniProt P07766 23-207; P04234 22-171; P09693 23-182; P20963 22-164)
Assay: cell-based or functional assay

T1 sequence (P07766 23-207, chain 1 of 4): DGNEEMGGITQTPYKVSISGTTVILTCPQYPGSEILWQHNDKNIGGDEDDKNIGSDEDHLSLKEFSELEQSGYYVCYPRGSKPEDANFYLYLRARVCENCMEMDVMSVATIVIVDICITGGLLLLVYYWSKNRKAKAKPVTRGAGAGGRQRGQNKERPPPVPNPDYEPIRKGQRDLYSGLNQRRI
T1 sequence (P04234 22-171, chain 2 of 4): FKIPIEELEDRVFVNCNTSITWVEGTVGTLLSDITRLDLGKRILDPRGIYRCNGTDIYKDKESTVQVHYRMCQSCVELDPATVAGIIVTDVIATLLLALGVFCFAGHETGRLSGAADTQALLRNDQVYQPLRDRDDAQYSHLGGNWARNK
T1 sequence (P09693 23-182, chain 3 of 4): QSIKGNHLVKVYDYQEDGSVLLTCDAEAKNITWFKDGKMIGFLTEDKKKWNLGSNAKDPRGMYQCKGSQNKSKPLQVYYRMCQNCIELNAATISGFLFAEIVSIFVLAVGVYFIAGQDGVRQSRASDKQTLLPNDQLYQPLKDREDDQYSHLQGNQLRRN
T1 sequence (P20963 22-164, chain 4 of 4): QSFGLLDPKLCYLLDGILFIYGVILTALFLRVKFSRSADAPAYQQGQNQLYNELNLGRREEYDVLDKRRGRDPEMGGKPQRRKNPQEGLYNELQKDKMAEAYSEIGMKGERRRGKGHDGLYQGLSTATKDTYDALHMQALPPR

RTCC Assay, Donor 0, EC50 [nM]	RTCC Assay, Donor 0, gMFI max [gMFI]	RTCC Assay, Donor 1, EC50 [nM]	RTCC Assay, Donor 1, gMFI max [gMFI]	RTCC Assay, Donor 2, EC50 [nM]	RTCC Assay, Donor 2, gMFI max [gMFI]	RTCC Assay, Donor 3, EC50 [nM]	RTCC Assay, Donor 3, gMFI max [gMFI]	Binder
0.102	29900	0.006	78200	0.028	64200	0.045	85600	B1
1.71	24100	0.151	67300	0.697	59100	1.58	83500	B2
0.147	34800	0.012	76900	0.034	62300	0.047	84000	B3

Target: T1, human CD3 (on human Pan-T cells or …)
Assay: cell-based or functional assay
Remark: another data set of the same source

Cytokine Release Assay (IFNγ), Donor 0, EC50 [nM]	Cytokine Release Assay (IFNγ), Donor 0, gMFI max [gMFI]	Cytokine Release Assay (IFNγ), Donor 1, gMFI max [gMFI]	Cytokine Release Assay (IFNγ), Donor 2, EC50 [nM]	Cytokine Release Assay (IFNγ), Donor 2, gMFI max [gMFI]	Cytokine Release Assay (IFNγ), Donor 3, gMFI max [gMFI]	Cytokine Release Assay (IFNγ), Donor 3, EC50 [nM]	Binder
0.0832	983000	8040	0.0468	31400	104000	–	B1
2.35	573000	4690	2.68	18500	152000	7.93	B2
0.191	1.71e+06	10800	0.126	31600	513000	0.0851	B3

Target: T2, CD3 on human donor PBMC / Pan T effector cells (human, UniProt P07766 23-207; P09693 23-182; P04234 22-171; P20963 22-164)
Assay: cell-based or functional assay

T2 sequence (P07766 23-207, chain 1 of 4): as the sequence (P07766 23-207, chain 1 of 4) above
T2 sequence (P09693 23-182, chain 2 of 4): as the sequence (P09693 23-182, chain 3 of 4) above
T2 sequence (P04234 22-171, chain 3 of 4): as the sequence (P04234 22-171, chain 2 of 4) above
T2 sequence (P20963 22-164, chain 4 of 4): as the sequence (P20963 22-164, chain 4 of 4) above

Cytokine Release Assay (TNFα) Donor 0 gMFI max [gMFI]	Cytokine Release Assay (TNFα) Donor 1 gMFI max [gMFI]	Cytokine Release Assay (TNFα) Donor 2 gMFI max [gMFI]	Cytokine Release Assay (TNFα) Donor 3 gMFI max [gMFI]	Cytokine Release Assay (TNFα) Donor 0 EC50 [nM]	Cytokine Release Assay (TNFα) Donor 1 EC50 [nM]	Cytokine Release Assay (TNFα) Donor 2 EC50 [nM]	Cytokine Release Assay (TNFα) Donor 3 EC50 [nM]	Binder
5310	4430	3680	3960	–	–	–	–	B4
231000	113000	125000	129000	0.459	13.1	5.98	0.212	B5
39600	5100	12000	17800	0.475	–	0.054	0.0446	B6
222000	82800	135000	122000	0.549	–	24.6	40.7	B7

Target: T2, CD3 on human donor PBMC / Pan T …
Assay: cell-based or functional assay
Remark: another data set of the same source

Cytokine Release Assay (IL2) Donor 0 EC50 [nM]	Cytokine Release Assay (IL2) Donor 0 gMFI max [gMFI]	Cytokine Release Assay (IL2) Donor 1 gMFI max [gMFI]	Cytokine Release Assay (IL2) Donor 2 gMFI max [gMFI]	Cytokine Release Assay (IL2) Donor 3 gMFI max [gMFI]	Cytokine Release Assay (IL2) Donor 1 EC50 [nM]	Cytokine Release Assay (IL2) Donor 2 EC50 [nM]	Cytokine Release Assay (IL2) Donor 3 EC50 [nM]	Binder
5.36	12500	12900	10700	12200	–	–	–	B4
0.456	377000	179000	121000	347000	1.64	16.7	0.172	B5
0.105	52800	22300	25100	65800	0.102	0.115	–	B6
2.29	24300	18500	15700	21200	10.8	–	2.92	B7

Reference: patent publication US20260167721A1 (ABLEXIS, published 2026)
